For the data set the following is noted: Aspergillus oryzae (strain ATCC 42149 / RIB 40), pH 7, Fluorescence, MOPS 30 mM, reversible: yes, whole UniProt chain shown.

B1: Guanyl-specific ribonuclease T1 wild type, P00651 (protein)
chain: MMYSKLLTLTTLLLPTALALPSLVERACDYTCGSNCYSSSDVSTAQAAGYQLHEDGETVGSNSYPHKYNNYEGFDFSVSSPYYEWPILSSGDVYSGGSPGADRVVFNENNQLAGVITHTGASGNNFVECT
For the protein B1, under “25 °C, Urea”, the denaturant m value was determined as 1.21 kcal/mol/M and the “denaturant midpoint (higher = more stable)” value is 5.3 M. Also, where the note is “Thermal”, the Tm is 50.9 °C and the “unfolding enthalpy (van 't Hoff)” value is 110 kcal/mol.

The term Tm denotes the temperature at the midpoint of the melting transition.

The record behind these values is FireProtDB (doi:10.1021/bi00118a013).
